Measurements: paper PMC6182153 (Nucleic Acids Research, 2018)

B2: Cas1-(His)6-MBP-Cas2 complex (complex, Streptococcus pyogenes)
chain 1: MAGWRTVVVNTHSKLSYKNNHLIFKDAYKTELIHLSEIDILLLETTDIVLSTMLVKRLVDENVLVIFCDDKRLPTAMLMPFYGRHDSSLQLGKQMSWSETVKSQVWTTIIAQKILNQSCYLGACSYFEKSQSIMDLYHGLENFDPSNREGHAARIYFNTLFGNDFSRDLEHPINAGLDYGYTLLLSMFAREVVVSGCMTQFGLKHANQFNQFNFASDIMEPFRPLVDKIVYENRNQPFPKIKRELFTLFSDTFSYNGKEMYLTNIISDYTKKVVKALNNEGKGVPEFRI
chain 2: MSYRYMRMILMFDMPTDTAEERKAYRKFRKFLLSEGFIMHQFSIYSKLLLNNTANNAMIGRLREHNPNKGNITLLTVTEKQFARMIYLHGERNNCIANSDERLVFLGEAFDES
B3: Streptococcus pyogenes type II-A Csn2 (natural protein, UniProt Q99ZV9 1-220, looked up)
chain: MNLNFSLLDEPIPLRGGTILVLEDVCVFSKIVQYCYQYEEDSELKFFDHKMKTIKESEIMLVTDILGFDVNSSTILKLIHADLESQFNEKPEVKSMIDKLVATITELIVFECLENELDLEYDEITILELIKSLGVKVETQSDTIFEKCLEILQIFKYLTKKKLLIFVNSGAFLTKDEVASLQEYISLTNLTVLFLEPRELYDFPQYILDEDYFLITKNMV

What was measured:
[1] = biological target: T1, Streptococcus pyogenes type II-A Cas1 with a C-terminal (His)6 tag (Streptococcus pyogenes, UniProt Q99ZW1 1-289); test: ITC
T1 sequence (looked up): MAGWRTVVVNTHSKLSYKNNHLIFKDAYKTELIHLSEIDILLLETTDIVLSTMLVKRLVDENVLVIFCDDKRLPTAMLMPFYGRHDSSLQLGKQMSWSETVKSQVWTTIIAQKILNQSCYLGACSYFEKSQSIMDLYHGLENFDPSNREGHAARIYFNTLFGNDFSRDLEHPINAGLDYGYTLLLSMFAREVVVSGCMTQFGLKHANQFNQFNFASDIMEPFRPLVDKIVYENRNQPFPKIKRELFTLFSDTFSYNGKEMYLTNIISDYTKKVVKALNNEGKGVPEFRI

[2] = biological target: B3; test: ITC
[3] = biological target: B2; test: ITC
[4] = biological target: Streptococcus pyogenes type II-A Cas9 with a C-terminal (His)6 tag (Streptococcus pyogenes, UniProt Q99ZW2 1-1368); test: SPR
Chain of Streptococcus pyogenes type II-A Cas9 with a C-terminal (His)6 tag (Q99ZW2 whole entry): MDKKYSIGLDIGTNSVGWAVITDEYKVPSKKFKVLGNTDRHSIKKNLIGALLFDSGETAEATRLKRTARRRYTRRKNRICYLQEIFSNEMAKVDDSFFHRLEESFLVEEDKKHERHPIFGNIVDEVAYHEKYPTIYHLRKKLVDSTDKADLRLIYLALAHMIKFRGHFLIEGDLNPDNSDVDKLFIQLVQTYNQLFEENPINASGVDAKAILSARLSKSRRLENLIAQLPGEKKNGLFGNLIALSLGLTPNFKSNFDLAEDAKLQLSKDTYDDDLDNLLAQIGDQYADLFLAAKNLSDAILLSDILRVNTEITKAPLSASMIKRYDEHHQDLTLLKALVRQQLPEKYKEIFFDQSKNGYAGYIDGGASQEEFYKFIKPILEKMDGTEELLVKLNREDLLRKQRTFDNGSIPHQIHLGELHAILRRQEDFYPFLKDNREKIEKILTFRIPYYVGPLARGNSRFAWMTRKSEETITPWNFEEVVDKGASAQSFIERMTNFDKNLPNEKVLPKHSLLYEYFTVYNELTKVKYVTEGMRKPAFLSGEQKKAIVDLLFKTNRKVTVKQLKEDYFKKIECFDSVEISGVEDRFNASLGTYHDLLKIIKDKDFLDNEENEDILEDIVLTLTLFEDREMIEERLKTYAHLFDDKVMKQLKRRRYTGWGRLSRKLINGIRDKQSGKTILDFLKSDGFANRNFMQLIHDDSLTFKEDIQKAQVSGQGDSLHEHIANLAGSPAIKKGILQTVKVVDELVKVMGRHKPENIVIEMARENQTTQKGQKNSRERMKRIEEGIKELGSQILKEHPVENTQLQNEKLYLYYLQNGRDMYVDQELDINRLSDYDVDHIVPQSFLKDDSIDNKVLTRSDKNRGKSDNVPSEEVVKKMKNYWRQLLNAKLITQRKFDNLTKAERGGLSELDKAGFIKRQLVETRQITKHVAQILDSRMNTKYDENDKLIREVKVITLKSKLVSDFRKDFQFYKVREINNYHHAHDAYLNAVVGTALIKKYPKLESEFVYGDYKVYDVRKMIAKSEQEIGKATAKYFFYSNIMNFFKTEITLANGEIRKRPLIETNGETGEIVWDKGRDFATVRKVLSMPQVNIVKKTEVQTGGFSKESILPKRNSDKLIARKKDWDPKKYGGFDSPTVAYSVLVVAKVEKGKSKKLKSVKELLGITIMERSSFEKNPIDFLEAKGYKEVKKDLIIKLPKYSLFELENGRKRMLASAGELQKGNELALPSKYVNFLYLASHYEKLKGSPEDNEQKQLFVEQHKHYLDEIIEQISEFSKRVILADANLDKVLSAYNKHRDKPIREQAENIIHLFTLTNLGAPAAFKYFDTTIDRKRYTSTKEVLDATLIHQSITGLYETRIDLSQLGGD

B1: N-terminal (His)6-MBP-tagged full-length Streptococcus pyogenes type II-A Cas2 (natural protein, UniProt Q99ZW0 1-113, looked up)
chain: MSYRYMRMILMFDMPTDTAEERKAYRKFRKFLLSEGFIMHQFSIYSKLLLNNTANNAMIGRLREHNPNKGNITLLTVTEKQFARMIYLHGERNNCIANSDERLVFLGEAFDES
[1]
  Kd: 240 nM
  stoichiometry N: 0.44 (His)6-MBP-Cas2 per Cas1

## B2
[2]
  stoichiometry N: 2.1 Cas1–(His)6-MBP-Cas2 complex per Csn2 tetramer

## B3
[3]
  Kd: 520 nM
[4]
  Kd: 110 nM
